Columns and labels:
recombinant human IL-6R [1] = target: T1, recombinant human IL-6R (human, UniProt P08887 20-365); test: SPR: antibody captured on an amine-coupled anti-human antibody (GLM chip), recombinant human IL-6R flowed as analyte
T1 construct: The sandwich ELISA used a His-tagged form; also called soluble IL-6R; His-tagged human IL-6R
T1 sequence: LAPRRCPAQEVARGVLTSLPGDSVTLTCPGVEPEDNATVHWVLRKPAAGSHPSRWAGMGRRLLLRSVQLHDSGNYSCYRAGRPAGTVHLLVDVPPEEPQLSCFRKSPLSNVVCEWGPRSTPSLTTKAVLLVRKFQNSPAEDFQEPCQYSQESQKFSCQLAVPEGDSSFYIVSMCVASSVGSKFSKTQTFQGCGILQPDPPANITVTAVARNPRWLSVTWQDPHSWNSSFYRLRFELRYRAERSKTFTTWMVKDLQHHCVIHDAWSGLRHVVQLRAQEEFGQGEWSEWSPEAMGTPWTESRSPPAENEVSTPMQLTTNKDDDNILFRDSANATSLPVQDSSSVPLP
Source text: (§1) To determine the affinity and kinetic parameters of FynomAb binding to human IL-17A and human IL-6R, an anti-human antibody was amine coupled to a GLM chip.

recombinant human IL-6R [2] = target: T1, recombinant human IL-6R; test: SPR (representative sensorgram with fit): antibody captured on an amine-coupled anti-human antibody (GLM chip), recombinant human IL-6R flowed as analyte
Source text: as §1

[3] = target: T2, human IL-6R on the surface of HEK Blue IL-6 cells (human, UniProt P08887 20-468); test: flow cytometry: HEK-Blue IL-6 cells (IL-6R+), drug titrated about 0.005-300 nM, detected with anti-human IgG-Alexa488
T2 construct: HEK Blue IL-6 cells (Invivogen); also called cell surface IL-6R; HEK-Blue-IL6 cells (IL6R+)
T2 sequence: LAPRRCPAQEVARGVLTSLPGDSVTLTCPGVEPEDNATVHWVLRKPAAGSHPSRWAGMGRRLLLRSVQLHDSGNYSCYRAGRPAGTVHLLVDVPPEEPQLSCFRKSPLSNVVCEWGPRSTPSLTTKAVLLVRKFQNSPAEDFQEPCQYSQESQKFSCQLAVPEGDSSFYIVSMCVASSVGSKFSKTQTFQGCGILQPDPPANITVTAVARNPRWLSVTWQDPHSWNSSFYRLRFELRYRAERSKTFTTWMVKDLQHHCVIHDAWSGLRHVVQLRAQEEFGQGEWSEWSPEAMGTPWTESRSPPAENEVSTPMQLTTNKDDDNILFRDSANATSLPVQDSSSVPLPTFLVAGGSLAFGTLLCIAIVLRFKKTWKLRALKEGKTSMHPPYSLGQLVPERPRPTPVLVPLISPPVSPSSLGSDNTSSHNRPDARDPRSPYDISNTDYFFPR

recombinant human IL-6R [4] = target: T1, recombinant human IL-6R; test: SPR, binder captured by anti-human antibody on GLM chip, IL-6R as analyte; average of 4 experiments; column head prints nM, value taken as M
Source text: as §1

recombinant human IL-6R [5] = target: T1, recombinant human IL-6R; test: SPR, binder captured by anti-human antibody on GLM chip, IL-6R as analyte; average of 4 experiments
Source text: as §1

recombinant human IL-17A = target: T3, recombinant human IL-17A (human, UniProt Q16552 24-155, limits assumed); test: SPR: antibody captured on an amine-coupled anti-human antibody (GLM chip), recombinant human IL-17A flowed as analyte
T3 construct: In the flow cytometry assay it was biotinylated; also called soluble IL-17A
T3 sequence (Q16552 24-155 limits assumed): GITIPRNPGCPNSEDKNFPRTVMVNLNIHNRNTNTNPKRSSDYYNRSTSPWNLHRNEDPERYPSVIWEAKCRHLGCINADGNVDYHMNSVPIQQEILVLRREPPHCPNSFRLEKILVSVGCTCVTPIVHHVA
Source text: as §1

recombinant human IL-6R [6] = target: T1, recombinant human IL-6R; test: SPR (representative sensorgram with fit): antibody captured on an amine-coupled anti-human antibody (GLM chip), recombinant human IL-6R flowed as analyte; remark: listed apart in the source
Source text: as §1

recombinant human IL-6R [7] = target: T1, recombinant human IL-6R; test: SPR, binder captured by anti-human antibody on GLM chip, IL-6R as analyte; average of 6 experiments; column head prints nM, value taken as M
Source text: as §1

recombinant human IL-6R [8] = target: T1, recombinant human IL-6R; test: SPR, binder captured by anti-human antibody on GLM chip, IL-6R as analyte; average of 6 experiments
Source text: as §1

B1: secukinumab (antibody, human IgG1, kappa, V domains shown)
VH: EVQLVESGGGLVQPGGSLRLSCAASGFTFSNYWMNWVRQAPGKGLEWVAAINQDGSEKYYVGSVKGRFTISRDNAKNSLYLQMNSLRVEDTAVYYCVRDYYDILTDYYIHYWYFDLWGRGTLVTVSS
VL: not shown
Recombinant human IL-6R [1]
  binding result: no binding

B2: tocilizumab (produced in house in CHO cells) (antibody, human IgG1, kappa)
heavy: not shown
light: not shown
notes: also called parental antibody
Recombinant human IL-6R [2]
  Kd: 0.467 nM
  koff: 0.000199 s⁻¹
  kon: 427000 M⁻¹ s⁻¹
[3]
  EC50 (read off the curve): ~1 nM
Recombinant human IL-6R [4]
  Kd: 0.417 nM
Recombinant human IL-6R [5]
  koff: 0.000186 s⁻¹
  kon: 473000 M⁻¹ s⁻¹
Recombinant human IL-17A
  binding result: no binding
Recombinant human IL-6R [6]
  Kd: 0.41 nM
  koff: 0.000189 s⁻¹
  kon: 461000 M⁻¹ s⁻¹

B3: Actemra (commercial tocilizumab) (antibody, human IgG1, kappa)
heavy: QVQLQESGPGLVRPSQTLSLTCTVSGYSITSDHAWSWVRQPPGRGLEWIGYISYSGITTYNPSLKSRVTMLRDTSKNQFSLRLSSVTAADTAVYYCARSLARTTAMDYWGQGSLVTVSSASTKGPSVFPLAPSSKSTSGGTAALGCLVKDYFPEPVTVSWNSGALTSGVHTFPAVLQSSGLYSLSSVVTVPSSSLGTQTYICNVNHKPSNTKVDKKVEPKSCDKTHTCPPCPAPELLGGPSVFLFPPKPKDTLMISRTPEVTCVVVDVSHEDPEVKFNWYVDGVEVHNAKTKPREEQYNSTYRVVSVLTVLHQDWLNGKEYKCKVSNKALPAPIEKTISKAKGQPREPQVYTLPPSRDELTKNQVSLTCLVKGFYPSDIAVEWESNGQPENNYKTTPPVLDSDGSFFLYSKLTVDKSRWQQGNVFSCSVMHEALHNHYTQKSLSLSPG
light: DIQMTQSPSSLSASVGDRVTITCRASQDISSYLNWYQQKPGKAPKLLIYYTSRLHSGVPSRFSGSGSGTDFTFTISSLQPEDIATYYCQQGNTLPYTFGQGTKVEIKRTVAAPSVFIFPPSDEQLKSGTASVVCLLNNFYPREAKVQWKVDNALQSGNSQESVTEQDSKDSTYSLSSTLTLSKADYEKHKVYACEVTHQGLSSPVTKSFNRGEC
notes: also called commercial Actemra; commercial grade Actemra
Recombinant human IL-6R [2]
  Kd: 0.467 nM
  koff: 0.000195 s⁻¹
  kon: 417000 M⁻¹ s⁻¹
Recombinant human IL-6R [7]
  Kd: 0.499 nM
Recombinant human IL-17A
  binding result: no binding
Recombinant human IL-6R [8]
  koff: 0.000191 s⁻¹
  kon: 413000 M⁻¹ s⁻¹
